Results on one substance are retold here after PMC5007201.

In the assay the target is human dynein heavy chain with an N-terminal GFP, within the GFP-dynein complex (human) (UniProt Q14204). The experiment in a line: single-molecule photobleaching step counting.

What is called stoichiometry N is a count of units in the complex or per binding partner. In the case of “human dynein heavy chain with an N-terminal GFP, within the GFP-dynein complex, Q14204 1-4646”, the stoichiometry N worked out at 2.
